Laboratory results: patent publication US20190271021A1

Target: human TrkB on CHO cells (CHO-K1-hTrkB/pSRE-Luc) (human) (UniProt Q16620)
Test: cell-based or functional assay

human TrkB on CHO cells (CHO-K1-hTrkB/pSRE-Luc) (human), sequence (Q16620 32-822): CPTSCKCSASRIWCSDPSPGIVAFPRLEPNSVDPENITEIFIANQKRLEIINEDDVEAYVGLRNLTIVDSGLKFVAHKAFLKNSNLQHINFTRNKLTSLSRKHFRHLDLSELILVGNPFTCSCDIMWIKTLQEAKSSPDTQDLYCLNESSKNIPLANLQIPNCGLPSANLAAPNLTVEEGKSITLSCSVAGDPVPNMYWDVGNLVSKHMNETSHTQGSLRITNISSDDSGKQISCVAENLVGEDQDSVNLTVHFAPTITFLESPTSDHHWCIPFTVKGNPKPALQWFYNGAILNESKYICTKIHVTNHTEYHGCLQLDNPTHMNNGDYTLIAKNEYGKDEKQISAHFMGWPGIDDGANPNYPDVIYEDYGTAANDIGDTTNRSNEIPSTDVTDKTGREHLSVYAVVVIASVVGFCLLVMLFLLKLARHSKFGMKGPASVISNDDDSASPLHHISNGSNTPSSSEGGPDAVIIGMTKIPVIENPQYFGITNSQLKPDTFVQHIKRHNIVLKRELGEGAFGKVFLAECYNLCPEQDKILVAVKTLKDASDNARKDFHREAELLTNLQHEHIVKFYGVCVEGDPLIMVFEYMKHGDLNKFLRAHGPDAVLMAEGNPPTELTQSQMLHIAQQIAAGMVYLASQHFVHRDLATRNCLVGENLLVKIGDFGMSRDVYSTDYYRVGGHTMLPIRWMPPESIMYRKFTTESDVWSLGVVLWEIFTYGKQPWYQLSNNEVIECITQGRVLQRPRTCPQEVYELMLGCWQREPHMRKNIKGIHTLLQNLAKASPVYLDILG

Substance	relative BDNF activity in TrkB luciferase assay, EC50 [%]	BDNF activity in TrkBluciferase assay, EC50 [% or nM] [%]
complex of pre-pro(IgA)-BDNF(-RGR)_opsin(L)-(G3D)4-G3S_VH<TfR>8D3-CH1-His6, anti-transferrin receptor antibody light chain and not-fused pre-pro(IgA)-BDNF(-RGR)-opsin(L)-T7-His6	60	–
complex of pre-pro(IgA)-BDNF(-RGR)_opsin(L)-(G3D)4-G3S_VH<TfR>8D3-CH1-His6, anti-transferrin receptor antibody light chain and not-fused pre-pro(IgA)-BDNF(-RGR; R81N)-His6 (from UniProt P23560 1-244)	80	–
complex of pre-pro(IgA)-BDNF(-RGR; R81N)_opsin(L)-(G3D)4-G3S_VH<TfR>8D3-CH1-His6, anti-transferrin receptor antibody light chain and not-fused pre-pro(IgA)-BDNF(-RGR; R81N)-His6 (from UniProt P23560 1-244)	110	–
pre-pro(IgA)-BDNF(-RGR)_opsin(L)-(G3D)4-G3S_VH<TfR>8D3-CH1-His6 with chimeric rat/human anti-transferrin receptor antibody light chain	200	–
pre-pro-BDNF(-RGR; K25N; T35N; Q79T)-T7-His6 (ligand)	–	2830
